Among the data in US20210332360 are Kd values, retold here.

Assay in all cases: flow
Series [1] has as its target T1, DC-SIGN (SIGNR1/CD209b) (Mus musculus) (UniProt Q8CJ91).
T1 sequence: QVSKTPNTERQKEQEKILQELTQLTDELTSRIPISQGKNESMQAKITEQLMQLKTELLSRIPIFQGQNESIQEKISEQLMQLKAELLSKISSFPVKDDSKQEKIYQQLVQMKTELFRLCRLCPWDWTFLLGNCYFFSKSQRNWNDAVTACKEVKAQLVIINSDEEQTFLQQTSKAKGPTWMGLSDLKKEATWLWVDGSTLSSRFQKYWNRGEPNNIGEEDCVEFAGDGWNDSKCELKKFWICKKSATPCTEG
To be noted: after the 5' primer region all dT replaced by 4 (alpha-D-mannose-triazole-modified C8-alkyne-dU); counter-target; 3.5-fold weaker than human.

For series [2], the target named is T2, DC-SIGN (DC-SIGNR/CD299) (Homo sapiens) (UniProt Q9H2X3).
T2 sequence: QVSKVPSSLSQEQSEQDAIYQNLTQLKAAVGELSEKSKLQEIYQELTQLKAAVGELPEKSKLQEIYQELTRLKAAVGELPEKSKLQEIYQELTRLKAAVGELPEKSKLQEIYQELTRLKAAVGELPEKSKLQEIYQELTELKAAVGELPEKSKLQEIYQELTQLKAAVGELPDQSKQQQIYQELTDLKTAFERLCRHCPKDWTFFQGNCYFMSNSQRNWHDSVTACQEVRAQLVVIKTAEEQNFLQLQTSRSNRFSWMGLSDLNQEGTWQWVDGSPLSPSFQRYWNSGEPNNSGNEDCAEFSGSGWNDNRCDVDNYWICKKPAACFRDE
To be noted: after the 5' primer region all dT replaced by 4 (alpha-D-mannose-triazole-modified C8-alkyne-dU); particle-displayed; SB with Mg, Ca, Mn.

The target in series [3] is T3, Pisum sativum agglutinin (PSA) (Pisum sativum) (UniProt P02867+P02867).
T3 sequence 1: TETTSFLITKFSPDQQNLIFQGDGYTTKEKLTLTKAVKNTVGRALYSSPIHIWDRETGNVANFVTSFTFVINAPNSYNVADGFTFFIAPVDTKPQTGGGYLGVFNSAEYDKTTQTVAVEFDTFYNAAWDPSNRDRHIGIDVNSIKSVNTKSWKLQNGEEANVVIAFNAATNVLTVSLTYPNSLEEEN
T3 sequence 2: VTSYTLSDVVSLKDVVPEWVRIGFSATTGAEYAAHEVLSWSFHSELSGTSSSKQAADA
To be noted: counter-target.

A word on the Kd: it is the constant that tells how readily two partners part at equilibrium. Low readings indicate a tighter complex, high ones a looser complex. “GATCCCAGTCCGAAGTAATCCAAGGGTAATTGGGAAATAAGGATGGGGTAATATGCAACCCTTGTGCAAACGGCTATAGG [D1]”: the Kd amounted to 12.5 nM in series [1] and 3.6 nM in series [2].
As to “GATCCCAGTCCGAAGTAATCGTTGCATCTGCACGACTGGTGAGCTTGAGTGGCAGAAGAACTTGTGCAAACGGCTATAGG [3-1m]”, the Kd in series [3] (after the 5' primer region all dT replaced by 4 (alpha-D-mannose-triazole-modified C8-alkyne-dU), natural dC) is > 1000 nM.
Consider “GATCCCAGTCCGAAGTAATCGTTGCATCTGCACGACTGGTGAGCTTGAGTGGCAGAAGAACTTGTGCAAACGGCTATAGG [3-1]”, for which the Kd in series [3] (after the 5' primer region (GATCCCAGTCCGAAGTAATC, natural) all dT replaced by 4 (alpha-D-mannose-triazole-modified C8-alkyne-dU) and all dC by 2 (5-formyl-dC)) was > 1000 nM.
